Measurements from paper PMC7129694 (Clinical Microbiology and Infection, 2005).

Target: Purified recombinant rClfB protein (clumping factor B of Staphylococcus aureus) (Staphylococcus aureus, UniProt O86476 45-877)
Sequence (O86476 45-877): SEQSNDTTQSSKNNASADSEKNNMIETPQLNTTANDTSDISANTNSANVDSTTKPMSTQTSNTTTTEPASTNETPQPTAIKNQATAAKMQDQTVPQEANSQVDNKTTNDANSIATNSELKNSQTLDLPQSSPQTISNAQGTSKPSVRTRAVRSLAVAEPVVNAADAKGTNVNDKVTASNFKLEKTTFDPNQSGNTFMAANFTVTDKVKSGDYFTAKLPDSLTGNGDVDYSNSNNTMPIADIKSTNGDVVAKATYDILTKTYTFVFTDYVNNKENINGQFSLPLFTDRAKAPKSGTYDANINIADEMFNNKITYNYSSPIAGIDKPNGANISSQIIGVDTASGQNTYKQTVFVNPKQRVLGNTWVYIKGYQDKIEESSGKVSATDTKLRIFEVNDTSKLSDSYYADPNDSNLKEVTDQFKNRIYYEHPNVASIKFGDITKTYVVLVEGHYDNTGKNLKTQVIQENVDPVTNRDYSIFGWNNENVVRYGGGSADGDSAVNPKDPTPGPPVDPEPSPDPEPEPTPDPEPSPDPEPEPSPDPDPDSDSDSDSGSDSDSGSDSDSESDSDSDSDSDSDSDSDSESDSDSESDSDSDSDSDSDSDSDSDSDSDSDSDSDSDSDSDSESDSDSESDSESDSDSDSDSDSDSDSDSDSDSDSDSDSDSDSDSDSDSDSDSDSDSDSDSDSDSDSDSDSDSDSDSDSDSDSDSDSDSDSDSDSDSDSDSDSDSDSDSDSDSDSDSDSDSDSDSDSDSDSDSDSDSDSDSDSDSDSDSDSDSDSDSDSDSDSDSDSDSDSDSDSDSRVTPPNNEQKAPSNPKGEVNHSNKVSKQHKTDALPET

B1: Purified recombinant human cytokeratin 10 (natural protein, UniProt P13645 1-584, looked up)
chain: MSVRYSSSKHYSSSRSGGGGGGGGCGGGGGVSSLRISSSKGSLGGGFSSGGFSGGSFSRGSSGGGCFGGSSGGYGGLGGFGGGSFRGSYGSSSFGGSYGGIFGGGSFGGGSFGGGSFGGGGFGGGGFGGGFGGGFGGDGGLLSGNEKVTMQNLNDRLASYLDKVRALEESNYELEGKIKEWYEKHGNSHQGEPRDYSKYYKTIDDLKNQILNLTTDNANILLQIDNARLAADDFRLKYENEVALRQSVEADINGLRRVLDELTLTKADLEMQIESLTEELAYLKKNHEEEMKDLRNVSTGDVNVEMNAAPGVDLTQLLNNMRSQYEQLAEQNRKDAEAWFNEKSKELTTEIDNNIEQISSYKSEITELRRNVQALEIELQSQLALKQSLEASLAETEGRYCVQLSQIQAQISALEEQLQQIRAETECQNTEYQQLLDIKIRLENEIQTYRSLLEGEGSSGGGGRGGGSFGGGYGGGSSGGGSSGGGHGGGHGGSSGGGYGGGSSGGGSSGGGYGGGSSSGGHGGSSSGGYGGGSSGGGGGGYGGGSSGGGSSSGGGYGGGSSSGGHKSSSSGSVGESSSKGPRY
B1 showed a Kd of 1400 to 1700 nM.
